B1: Protein PTHB1 (Homo sapiens), Q3SYG4 (parent)
chain: MSLFKARDWWSTILGDKEEFDQGCLCLANVDNSGNGQDKIIVGSFMGYLRIFSPHPAKTGDGAQAEDLLLEVDLRDPVLQVEVGKFVSGTEMLHLAVLHSRKLCVYSVSGTLGNVEHGNQCQMKLMYEHNLQRTACNMTYGSFGGVKGRDLICIQSMDGMLMVFEQESYAFGRFLPGFLLPGPLAYSSRTDSFLTVSSCQQVESYKYQVLAFATDADKRQETEQQKLGSGKRLVVDWTLNIGEQALDICIVSFNQSASSVFVLGERNFFCLKDNGQIRFMKKLDWSPSCFLPYCSVSEGTINTLIGNHNNMLHIYQDVTLKWATQLPHIPVAVRVGCLHDLKGVIVTLSDDGHLQCSYLGTDPSLFQAPNVQSRELNYDELDVEMKELQKIIKDVNKSQGVWPMTEREDDLNVSVVVSPNFDSVSQATDVEVGTDLVPSVTVKVTLQNRVILQKAKLSVYVQPPLELTCDQFTFEFMTPDLTRTVSFSVYLKRSYTPSELEGNAVVSYSRPTDRNPDGIPRVIQCKFRLPLKLICLPGQPSKTASHKITIDTNKSPVSLLSLFPGFASQSDDDQVNVMGFHFLGGARITVLASKTSQRYRIQSEQFEDLWLITNELILRLQEYFEKQGVKDFACSFSGSIPLQEYFELIDHHFELRINGEKLEELLSERAVQFRAIQRRLLARFKDKTPAPLQHLDTLLDGTYKQVIALADAVEENQGNLFQSFTRLKSATHLVILLIALWQKLSADQVAILEAAFLPLQEDTQELGWEETVDAAISHLLKTCLSKSSKEQALNLNSQLNIPKDTSQLKKHITLLCDRLSKGGRLCLSTDAAAPQTMVMPGGCTTIPESDLEERSVEQDSTELFTNHRHLTAETPRPEVSPLQGVSE
partner: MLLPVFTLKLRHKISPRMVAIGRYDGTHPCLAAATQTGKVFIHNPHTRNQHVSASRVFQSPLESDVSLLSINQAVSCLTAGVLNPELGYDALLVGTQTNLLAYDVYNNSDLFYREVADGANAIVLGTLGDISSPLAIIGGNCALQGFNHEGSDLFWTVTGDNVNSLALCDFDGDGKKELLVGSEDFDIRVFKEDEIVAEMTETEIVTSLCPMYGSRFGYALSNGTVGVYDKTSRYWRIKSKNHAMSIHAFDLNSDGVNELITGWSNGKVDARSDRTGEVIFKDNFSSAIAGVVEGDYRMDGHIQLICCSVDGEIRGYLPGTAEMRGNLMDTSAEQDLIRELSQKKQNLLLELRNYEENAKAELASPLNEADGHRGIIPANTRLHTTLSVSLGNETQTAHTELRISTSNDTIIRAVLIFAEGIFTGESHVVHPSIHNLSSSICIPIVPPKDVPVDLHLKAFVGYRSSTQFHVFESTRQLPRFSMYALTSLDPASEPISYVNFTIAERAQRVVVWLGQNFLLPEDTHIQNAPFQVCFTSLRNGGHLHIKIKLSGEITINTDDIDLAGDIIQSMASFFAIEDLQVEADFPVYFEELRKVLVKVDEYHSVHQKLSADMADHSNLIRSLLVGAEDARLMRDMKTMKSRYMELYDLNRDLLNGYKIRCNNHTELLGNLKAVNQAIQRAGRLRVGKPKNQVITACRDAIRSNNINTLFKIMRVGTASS

Variants of: B1
Conditions: with bbs2_human BBS2, Q9BXC9

| Variant | effect of a mutation on the interaction |
| --- | --- |
| K704A | with no effect |
| L655A | with no effect |
| K685E | with no effect |
| K685A | with no effect |
| K661A | with no effect |
| I657E | with no effect |
| F673E | with no effect |
| F673K | disrupting interaction strength |
| P691L | disrupting interaction strength |
| P691K | with no effect |
| P691A | with no effect |
| P691S | disrupting interaction strength |
| H651E | with no effect |
| L662K | with no effect |
| S667E | with no effect |
| S667A | with no effect |
| H652K | with no effect |
| H652A | with no effect |
| A675E | with no effect |
| R683E | with no effect |
| L681E | with no effect |
| L681K | with no effect |
| L681A | with no effect |
| R656K | with no effect |
| R656E | with no effect |

| Variant | effect of a mutation on the interaction |
| --- | --- |
| N658A | with no effect |
| H694E | with no effect |
| L692E | with no effect |
| R669A | with no effect |
| R669E | with no effect |
| A682K | with no effect |
| G659E | with no effect |
| G659A | with no effect |
| Y703A | with no effect |
| Y703K | with no effect |
| T702A | with no effect |
| Q672A | with no effect |
| Q672K | with no effect |
| T697E | with no effect |
| T697C | disrupting interaction strength |
| T697K | with no effect |
| I649K | with no effect |
| I649E | with no effect |
| E668K | with no effect |
| L698A | with no effect |
| L698E | with no effect |
| L698K | with no effect |
| I676A | with no effect |
| I676E | with no effect |
| L695A | with no effect |

| Variant | effect of a mutation on the interaction |
| --- | --- |
| L695E | with no effect |
| L695M | disrupting interaction strength |
| L695K | with no effect |
| P689E | with no effect |
| L666E | with no effect |
| E654A | with no effect |
| E654K | with no effect |
| L665A | with no effect |
| L665R | disrupting interaction strength |
| G701A | with no effect |
| G701K | with no effect |
| G701E | disrupting interaction strength |
| D686A | with no effect |
| T688A | disrupting interaction strength |
| F653A | with no effect |
| F653K | with no effect |
| F653E | with no effect |
| E664A | with no effect |
| E664K | with no effect |
| R674E | with no effect |
| R674P | disrupting interaction strength |
| R674K | with no effect |
| D700A | with no effect |
| D700K | with no effect |
| Q693A | with no effect |

| Variant | effect of a mutation on the interaction |
| --- | --- |
| L699E | with no effect |
| L699A | with no effect |
| Q677K | with no effect |
| Q677E | with no effect |
| Q677A | with no effect |
| Q677Y | disrupting interaction strength |
| R678K | with no effect |
| R678A | with no effect |
| E663A | with no effect |
| E663K | with no effect |
| K687A | with no effect |
| L680E | with no effect |
| L680K | with no effect |
| L680A | with no effect |
| A670K | with no effect |
| A670E | with no effect |
| F684E | with no effect |
| F684K | with no effect |
| F684A | with no effect |
| D650A | with no effect |
| Q705E | with no effect |
| Q705K | with no effect |
| R679K | with no effect |
| R679G | disrupting interaction strength |

Further lines, results first:

| effect of a mutation on the interaction | Variant |
| --- | --- |
| with no effect | K704E |
| with no effect | L655E |
| with no effect | L655K |
| with no effect | K661E |
| with no effect | I657A |
| with no effect | I657K |
| with no effect | F673A |
| with no effect | P691E |
| with no effect | H651A |
| with no effect | H651K |
| with no effect | L662E |
| with no effect | L662A |
| disrupting interaction strength | A690E |
| disrupting interaction strength | A690F |
| with no effect | A690K |
| disrupting interaction strength | A690V |
| with no effect | S667K |
| with no effect | H652E |
| with no effect | A675K |
| disrupting interaction strength | A675H |
| with no effect | R683A |
| with no effect | R683K |
| with no effect | V706E |
| with no effect | V706A |
| with no effect | R656A |
| with no effect | N658K |

| effect of a mutation on the interaction | Variant |
| --- | --- |
| with no effect | N658E |
| disrupting interaction strength | H694S |
| with no effect | H694K |
| with no effect | H694A |
| disrupting interaction strength | H694Y |
| with no effect | L692K |
| with no effect | L692A |
| with no effect | R669K |
| with no effect | A682E |
| with no effect | G659K |
| with no effect | Y703E |
| with no effect | T702K |
| with no effect | T702E |
| disrupting interaction strength | T702C |
| with no effect | Q672E |
| with no effect | T697A |
| with no effect | D696K |
| with no effect | D696A |
| with no effect | D696E |
| with no effect | E668A |
| with no effect | I676K |
| with no effect | P689K |
| disrupting interaction strength | P689S |
| with no effect | P689A |
| with no effect | L666K |
| with no effect | L666A |

| effect of a mutation on the interaction | Variant |
| --- | --- |
| with no effect | L665K |
| with no effect | L665E |
| with no effect | D686K |
| with no effect | D686E |
| disrupting interaction strength | T688E |
| with no effect | T688K |
| with no effect | R674A |
| with no effect | D700E |
| with no effect | Q693E |
| with no effect | Q693K |
| disrupting interaction strength | L699K |
| with no effect | R678E |
| with no effect | K687E |
| disrupting interaction strength | A670T |
| with no effect | E660K |
| with no effect | E660A |
| with no effect | D650K |
| with no effect | D650E |
| with no effect | Q705A |
| disrupting interaction strength | Q705M |
| with no effect | V671E |
| with no effect | V671A |
| with no effect | V671K |
| with no effect | R679E |
| with no effect | R679A |
